This note sets out measurements from PMC5595146 (Metallomics : integrated biometal science, 2017).

B1: S. pombe Grx4 (WT) (natural protein, UniProt O74790 1-244, looked up)
chain: MSVEITFVEQFQEILQNGKEQIILLNFYAPWAAPCKQMNQVFDQFAKDTKNAVFLKIEAEKFSDIAESFDVNAVPLFVLIHGAKVLARISGANPQKLKAAIDEYIQPLISQISSTNASVETQVNSVQTTNTTSNTSKAPNGLDSELNERLSTLTNAHNVMLFLKGTPSEPACGFSRKLVGLLREQNVQYGFFNILADDSVRQGLKVFSDWPTFPQLYIKGEFVGGLDIVSEMIENGELQEMLPN

Series [1] concerns the molecule itself. Put plainly: SEC.
Series [2] addresses T1, S. pombe Php4 (WT), 6xHis-tagged (S. pombe, UniProt O14318 1-295).
T1 sequence (looked up): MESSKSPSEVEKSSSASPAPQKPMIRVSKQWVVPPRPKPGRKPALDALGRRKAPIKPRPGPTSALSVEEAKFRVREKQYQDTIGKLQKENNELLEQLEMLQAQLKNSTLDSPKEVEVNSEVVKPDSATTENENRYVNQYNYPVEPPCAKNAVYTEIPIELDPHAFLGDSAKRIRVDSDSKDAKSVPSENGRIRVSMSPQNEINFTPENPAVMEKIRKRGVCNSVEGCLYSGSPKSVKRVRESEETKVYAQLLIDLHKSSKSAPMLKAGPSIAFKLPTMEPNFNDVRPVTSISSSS
Put plainly: SPR. A general note: Surface plasmon resonance follows binding to a sensor surface in real time, without labels.

Series [3] concerns the target B1. Put plainly: CD-monitored titration.

What is called Kd is the equilibrium constant for the complex coming apart. As a reminder, the koff is the rate constant with which the complex falls apart. In general, kon refers to a measure of how fast the partners come together. Lower therefore signals slower complex formation. Turning to B1, in series [1], the binding result is “binds”. In series [2], this molecule yielded a Kd of 34.1 µM, a koff of 0.00219 s⁻¹ and a kon of 64.3 M⁻¹ s⁻¹.

B2: S. pombe Grx4 (C172A) (natural protein, UniProt O74790 1-244, looked up)
chain: MSVEITFVEQFQEILQNGKEQIILLNFYAPWAAPCKQMNQVFDQFAKDTKNAVFLKIEAEKFSDIAESFDVNAVPLFVLIHGAKVLARISGANPQKLKAAIDEYIQPLISQISSTNASVETQVNSVQTTNTTSNTSKAPNGLDSELNERLSTLTNAHNVMLFLKGTPSEPAAGFSRKLVGLLREQNVQYGFFNILADDSVRQGLKVFSDWPTFPQLYIKGEFVGGLDIVSEMIENGELQEMLPN
In series [2], B2 yielded a Kd of 897 µM, a koff of 0.00916 s⁻¹ and a kon of 10.2 M⁻¹ s⁻¹.

B3: S. cerevisiae Fra2^Δ1–35 (domain or fragment, UniProt P53082 36-120, looked up)
chain: MPVTEQGLRERIESAIPQVYHIIVTDLSYGCGQSFDIVVVSDFFQGKSKLMRSRAVNKAVKEELQEIHAFSCKCYTEEEWSKIVV
As to B3, the binding result in series [3] is reported as “binds”.
